Assay results as given in the supplement of paper PMC9170038.

Tested on: MS2 coat protein
Test: apparent KD of MS2 coat protein; higher = weaker reporter binding
Conditions: Eterna round: R107; input ligand: none
Outline: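 Apparent KD per design is the median of normalised cluster binding-curve fits. Designed RNA switches transcribed on-chip from Illumina sequencing clusters were titrated with SNAP-549-labelled MS2 coat protein in twofold steps from 0.7 or 1.5 nM to 3 µM, with 0.8–1.5 h down to 10–20 min per step. Buffer: 100 mM Tris-HCl pH 7.5, 80 mM KCl, 4 mM MgCl2, without or with constant ligand.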

Compared with “ACAUGAGGAUCACCCAUGUACAUAAGGGAAGGAGCGCGGUGAAACGCAGGUAGGUCGCCCAUAAUAUCUAACAUUAAAUUCAUGU [LeftA3]”, “GGACUAACCAGAAGGAGCGGCACGCAGAAACUGCAAAAUCCUCCACACGAGGAUCACCCGUGUCAGGUAGGUCGCUGGUUAGUCG” is 2.9-fold higher in “apparent KD of MS2 coat protein” value: 16.6 nM for the first, 48.6 nM for the second.

“CGAUAGGGUCAAUACCUAAUCAUAUCUGAAGGAGCGUGGAUAUACACAGGUAGGUCGCAGAAUCACAUGAGGAUCACCCAUGUCC [Same State Arginine A GF13]” and “GGUCCCGUCGGAAGGAGCGACAUGAGGAUCACCCAUGUCUCCCGUUAUGGGAGUUCUUUAGGUCAGGUAGGUCGCCGGCGGGAGC [#1 Exclusion - Arginine B Attempt #15 (Inspired by Omei)]” are within 1.5-fold of each other in “apparent KD of MS2 coat protein” value: 102 nM for the first, 94.5 nM for the second.

“AAACGCCACGGAAGGAGCGACAUGAGGAUCACCCAUGUAGAUUUGGCGGAUGCACCCUCCUGUCAGGUAGGUCGCCGUGCGAUAA [XArg-B25]” and “GGGUACAUCGCGGCCGCCACUCGUGUAAAUACAUGAGGAUCACCCAUGUCGAUGGAGACAUCGGCGAGGACCGGGUGAUGUACCG” are within 1.5-fold of each other in “apparent KD of MS2 coat protein” value: 60.8 nM for the first, 47.5 nM for the second.

Going from “UCACAUGAGGAUCACCCAUGUAAAGUUGAAGGAGCGAUCAUUAGGUCAGGUAGGUCGCAACACAUGAGGAUCACCCAUGUUGUCC [DOUBLE!!! :-D]” to “UGAUUGAACGGAAGGAGCGUGAAGAGAGAGAAACAUGAGGAUCACCCAUGUAGAGAGAGAUCACAGGUAGGUCGCCGAGAGAUUG [11.C]”, the “apparent KD of MS2 coat protein” value falls from 40.8 nM to 15 nM (2.7-fold).

First: AUAACAUGAGGAUCACCCAUGUAAGCAGAUACCAGCUAGGAAACUAGCCCUUGGCAGCUGCAAGGUGAUCCUAGGUAUCUGCAAU [(M1)-(M2)-(T1)-(T2)-(M)'-(T)'_Design6]
Second: AAGACGGUCGGAAGGAGCGGUACAUGAGGAUCACCCAUGUACCUCUGGGCAUCCGUAGUGUGCCAGGUAGGUCGCCGAUUGCGGG [Esorbevege]
The “apparent KD of MS2 coat protein” value of the first is 2.1-fold higher: 24.7 nM for the first, 11.7 nM for the second.

Going from “UGUAUGUGAUCUGAUACCAGUCCAACUGGUAAAACCUGAGGAUCACCCGGGUAAAAUUGGGACCCUUGGCAGCAGAUCGCAUACU” to “UCGGGCAGAGCGGCCGCCACUGUUUGGCAUGCGGAUGAAGGAACAUGAGGAUCACCCAUGUAGAUUAGGACCGGGCUAGCGGAGA [sscsmullin]”, the “apparent KD of MS2 coat protein” value falls from 475 nM to 17.2 nM (28-fold).

Compared with “UCAGUGCAAGGAAGGAGCGGGUACAUGAGGAUCACCCAUGUGCAAGUGGUGAGCGUCCGUGCCCAGGUAGGUCGCCUAGCCUGGU [Quisso]”, “AUACAUGAGGAUCACCCAUGUAUAGUUGAAGGAGCGACCAGAGGGUCAGGUAGGUCGCAGCGCAUGAGGUAAGCCCAUGUAUGCU [#1 Exclusion - Arginine A Attempt #16 (Inspired by Pi)]” is 4.8-fold lower in “apparent KD of MS2 coat protein” value: 109 nM for the first, 22.8 nM for the second.

“UGCGUACAUGAGGAUCACCCAUGUACUGAAGGAGCGGGAGGCAUCUCAGGUAGGUCGCAGACAUGAGGAUCACCCAUGUAGUGGU [Exclusion Arginine A GF 18]” and “CACAUGAGGAUCACCCAUGUCUGAACUGAAGGAGCGCUAAAUAAGGCAGGUAGGUCGCGGAAUCGUGUGUGCAUAUGCACACGCG [9.U]” are within 1.5-fold of each other in “apparent KD of MS2 coat protein” value: 26.9 nM for the first, 24 nM for the second.

Compared with “AAAAGAGGUGGAAGGAGCGGGAGACAUGAGGAUCACCCAUGUGAAGUGACGAAAGGAUCAUCCCAGGUAGGUCGCCAUGUCGAAA [csstmullin]”, “GGACUAACCAGAAGGAGCGACGCGCAGAAACUGCAAAUUCCUCCACACGAGGAUCACCCGUGUCAGGUAGGUCGCUGGUUAGUCG” is 8.9-fold lower in “apparent KD of MS2 coat protein” value: 147 nM for the first, 16.6 nM for the second.

First: ACGCUGAUUGAUUACAAUCAGCGAAAAGAUACCAGUGGGUAAUCCCACCCUUGGCAGCUUAAACUUGAGGAUCACCCAGGUGGUA [TheoAS 17 #MS2Right #BothOrNeither #AlternativeMS2]
Second: AUACAUGAGGAUCACCCAUGUUAUAGUGAAGGAGCGACAUUUAGGUCAGGUAGGUCGCACUAUUGAAUUAUUAUUCUCAGUUCUU [JR_ExcArginiA_Sub019]
The “apparent KD of MS2 coat protein” value of the first is 18-fold higher: 238 nM for the first, 13.2 nM for the second.

Same assay, conditions: Eterna round: R107; input ligand: theophylline 20 uM

“GUGUACAUGAGGAUCACCCAUGUCGAGUUACGAGGACCGGUACGGCCGCCACUCGGCGGCUCGACACGGAUAGCGGUGCGUUGCU [Exclusion - Tryptophan A]” and “ACAUGAGGAUCACCCAUGUACAUAAGGGAAGGAGCGCGGUGAAACGCAGGUAGGUCGCCCAUAAUAUCUAACAUUAAAUUCAUGU [LeftA3]” are within 1.5-fold of each other in “apparent KD of MS2 coat protein” value: 40.8 nM for the first, 27.9 nM for the second.

“GGACUAACCAGAAGGAGCGGCACGCAGAAACUGCAAAAUCCUCCACACGAGGAUCACCCGUGUCAGGUAGGUCGCUGGUUAGUCG” and “AUUCCAUUGGUGCAGUUGUUAAAUGGCGAUACCAGCGUGGAAACACGCCCUUGGCAGCGCCAAAACAUGAGGAUCACCCAUGUUA [Havirov]” are within 1.5-fold of each other in “apparent KD of MS2 coat protein” value: 55 nM for the first, 70.5 nM for the second.

Compared with “CGAUAGGGUCAAUACCUAAUCAUAUCUGAAGGAGCGUGGAUAUACACAGGUAGGUCGCAGAAUCACAUGAGGAUCACCCAUGUCC [Same State Arginine A GF13]”, “CGGUUUGUGAUGGAUACCAGCAGAGAAAACGUUUAUCCUAACAUGAGGAUCACCCAUGUAUGCCCUUGGCAGCUGUUGUGGGCUG [8.U]” is 2.1-fold lower in “apparent KD of MS2 coat protein” value: 127 nM for the first, 60.3 nM for the second.

“GGUCCCGUCGGAAGGAGCGACAUGAGGAUCACCCAUGUCUCCCGUUAUGGGAGUUCUUUAGGUCAGGUAGGUCGCCGGCGGGAGC [#1 Exclusion - Arginine B Attempt #15 (Inspired by Omei)]” and “AAACGCCACGGAAGGAGCGACAUGAGGAUCACCCAUGUAGAUUUGGCGGAUGCACCCUCCUGUCAGGUAGGUCGCCGUGCGAUAA [XArg-B25]” are within 1.5-fold of each other in “apparent KD of MS2 coat protein” value: 123 nM for the first, 109 nM for the second.

Going from “GGUUACUCUACGGCCGCCACUGGGCAUGUAAAUAACAUGAGGAUCACCCAUGUGGAAUAAAAUUACAGGACCGGGUAGUGUAACC [Tryptophan B 22]” to “UGUCAUGGAAACAUGACAGGUUCUACCGGUCGAGGACCGGUACGGCCGCCACUCGAUUGGUGGCACAUGAGGAUCACCCAUGUUA [SS Tryp A #15]”, the “apparent KD of MS2 coat protein” value falls from 270 nM to 39.6 nM (6.8-fold).

First: GGGUACAUCGCGGCCGCCACUCGUGUAAAUACAUGAGGAUCACCCAUGUCGAUGGAGACAUCGGCGAGGACCGGGUGAUGUACCG
Second: AGUGUUAUAACUGAUACCAGACUUUUGCUUAUACAUGAGGAUCACCCAUGUAAAAUGGUUGUCCCUUGGCAGCAGAAAAUACACA [JR_SSTheophyB_Sub007]
The “apparent KD of MS2 coat protein” value of the first is 1.9-fold lower: 54.2 nM for the first, 104 nM for the second.

First: CCUCAUGUGGUGCUGCACAUGAGAGGUGAUACCAGCAUCGAAAGAUGCCCUUGGCAGCACCAACAUGAGGAUCACCCAUGUAAUA [(M)'-(T)'-(M)''-(T1)-(T2)-(M1)-(M2)_Design1]
Second: UCACAUGAGGAUCACCCAUGUAAAGUUGAAGGAGCGAUCAUUAGGUCAGGUAGGUCGCAACACAUGAGGAUCACCCAUGUUGUCC [DOUBLE!!! :-D]
The “apparent KD of MS2 coat protein” value of the first is 1.9-fold higher: 94 nM for the first, 49.9 nM for the second.

Compared with “UGAUUGAACGGAAGGAGCGUGAAGAGAGAGAAACAUGAGGAUCACCCAUGUAGAGAGAGAUCACAGGUAGGUCGCCGAGAGAUUG [11.C]”, “AUAACAUGAGGAUCACCCAUGUAAGCAGAUACCAGCUAGGAAACUAGCCCUUGGCAGCUGCAAGGUGAUCCUAGGUAUCUGCAAU [(M1)-(M2)-(T1)-(T2)-(M)'-(T)'_Design6]” is 2.4-fold higher in “apparent KD of MS2 coat protein” value: 20.8 nM for the first, 49.3 nM for the second.

First: AAGACGGUCGGAAGGAGCGGUACAUGAGGAUCACCCAUGUACCUCUGGGCAUCCGUAGUGUGCCAGGUAGGUCGCCGAUUGCGGG [Esorbevege]
Second: GGCACAUAGUCGGCCGCCACUAGUGGGAAAUGGGAGAACAUGAGGAUCACCCAUGUAUUAUAGCCUAGGACCGGGACUAUGUGCC [Mammoth]
The “apparent KD of MS2 coat protein” value of the first is 8.4-fold lower: 23.3 nM for the first, 196 nM for the second.

In the case of “UGUAUGUGAUCUGAUACCAGUCCAACUGGUAAAACCUGAGGAUCACCCGGGUAAAAUUGGGACCCUUGGCAGCAGAUCGCAUACU”, the “apparent KD of MS2 coat protein” value is reported as 285 nM.
